This experiment has as its target T1, Wild type SubB (subtilase cytotoxin B subunit) (Escherichia coli, UniProt Q6EZC3 24-141).
T1 construct: also called SubB WT
Nature of the experiment: SPR (Biacore […]), […], single cycle kinetics. (SPR reads the build-up and loss of mass on a sensor chip optically.)

B1: Bovine α1-acid glycoprotein (AGP) (other)
chain: QSPECANLMTVAPITNATMDLLSGKWFYIGSAFRNPEYNKSARAIQAAFFYLEPRHAEDKLITREYQTIEDKCVYNCSFIKIYRQNGTLSKVESDREHFVDLLLSKHFRTFMLAASWNGTKNVGVSFYADKPEVTQEQKKEFLDVIKCIGIQESEIIYTDEKKDACGPLEKQHEEERKKETEAS
notes: mature; also called Bovine α1-AGP; bovine AGP
Broadly, the Kd is the constant that tells how readily two partners part at equilibrium. A high value points to a looser complex. As to B1, the dissociation constant Kd stood at 156 nM.

The values above are taken from US20260139240A1 (GRIFFITH UNIVERSITY, published 2026).
